Laboratory results reported in US20230045284A1.

Target: Total cellular Ras (all isoforms KRas, HRas and NRas, endogenous, in human cell lines)
Experiment: cell-based or functional assay

## RRSP*-DTB (catalytically inactive RRSP H4030A fused to DTB) (from UniProt P00588 186-535) (enzyme)
  dose needed for depletion of RAS in HCT-116 spheroids relative to RRSP-DTB: 10 fold

## RRSP-DTB (RRSP fused via a (G4S)2 linker to diphtheria toxin residues 186-535, DTT-DTR) (from UniProt P00588 186-535) (enzyme)
  IC50 of cell viability after 72 hours, HCT-116 cells: 1.5 pM
  IC50 of cell viability at 72 h, MDA-MB-436 cells: 5 pM
  IC50 of cell viability, MDA-MB-231 cells, 72 hours: 12 pM
  IC50 of viability of HCT-116 spheroids after 7 days: 85 pM
  concentration giving complete cleavage of RAS after 1 h, western blot, MDA-MB-436 cells: 10 nM

## RRSP-CPD-DTa-DTB (RRSP fused to the MARTX cysteine protease domain and detoxified diphtheria toxin) (from UniProt P00588 33-567) (enzyme)
  concentration giving partial RAS inactivation, western blot, HCT-116 cells: 100 pM
